Patent US20170008928A1, “NOVEL PEPTIDES AND PEPTIDE DERIVATIVES AND USES THEREOF” (Novo Nordisk A/S, priority 2015, published 2017)
Starred links: 1 amine or outer side, 2 acyl side, 3 side chain; linkers in the order of their positions; H or OH if unused. Non-standard residues stand in square brackets, D forms with d. Residues, ends and D or L forms follow the SMILES beside them. No end group written: not given here. *: point of attachment. Phe(4-CH2SO3H) = N[C@@H](Cc1ccc(CS(=O)(=O)O)cc1)C(=O)O; sY = N[C@@H](Cc1ccc(OS(=O)(=O)O)cc1)C(=O)O; C18 diacid = O=C(O)CCCCCCCCCCCCCCCCC(=O)*; NMe1Nal = CN[C@@H](Cc1cccc2ccccc12)C(=O)O; γGlu = O=C(O)[C@H](CCC(=O)[*:2])N[*:1]; NMeF = CN[C@@H](Cc1ccccc1)C(=O)O; dNMeD = CN[C@H](CC(=O)O)C(=O)O; Nle = CCCC[C@H](N)C(=O)O; AEEA = NCCOCCOCC(=O)O

How the values were obtained:
[1] = Chemical stability compared to CCK-8s, 8 mM phosphate pH 7.4, RP-UHPLC; type: physicochemical; conditions: for Absolute purity loss (pp): 1 mM in 8 mM sodium phosphate pH 7.4
Protocol: The resulting samples were stored in HPLC vials at 5° C. and 37° C. for 2 weeks. The samples were analysed in the beginning of the experiment (t=0), after one week and after two weeks by RP-UHPLC with a mobile phase containing phosphate and with a gradient of acetonitrile. UV detection at 215 nm was used. Samples after one week and two weeks were analysed twice. The calculations were done as described above, and the results are summarised in Table 7 (average of two determinations).

[2] = Pharmacokinetic (PK) studies in mini-pig, i.v.; type: in vivo; conditions: i.v. 5 nmol/kg, female Göttingen mini-pigs, harmonic mean; for half-life: minipig, plasma, iv, read-out: Plasma terminal half-life (T½) (converted)
Protocol: The purpose of this study is to determine the protraction in vivo of a number of CCK derivatives of the invention after intravenous (i.v.) administration to mini-pigs, i.e. the prolongation of their time in the body and thereby their time of action. This was done in pharmacokinetic (PK) studies, where the terminal half-life of the derivative in question was determined. By terminal half-life is generally meant the period of time it takes to halve a certain plasma concentration, measured after the initial distribution phase.
The derivatives of the compounds listed in Table 4 were subjected to PK studies as described in the following.
Female Göttingen mini-pigs obtained from Ellegaard Göttingen Minipigs (Dalmose, Denmark) at approximately 6 months of age and weighing approximately 17 kg were used in the studies. […] Additional blood samples were collected for the derivatives of Examples 2, 4, 7, 8, and 9 at the following time points: 5, 12, 22, 28 and 144 hours. The blood samples were collected into test tubes containing EDTA buffer for stabilisation and kept on ice for max. 20 minutes before centrifugation. The centrifugation procedure to separate plasma was: 4° C., approx. 2500 g for 10 minutes. Plasma was collected and immediately transferred to Micronic tubes stored at −20° C. until assayed.
Plasma was pipetted into Micronic tubes on dry ice, and kept at −20° C. until analysed for plasma concentration of the respective CCK derivative using LC-MS. The plasma samples (including standard curve samples used for quantitation of unknowns and prepared from blank plasma spiked with CCK compound at a concentration range of 0.5-2000 nM for the compounds of Examples 3, 5, 6 or 0.5-1000 nM for the remaining Example compounds) were protein precipitated using three volumes of methanol and centrifuged (16000×g, 4° C., 20 min). The supernatants were injected into the chromatographic system (TurboFlow Transcend 1250 & 10 valve VIM, Thermo Fisher Scientific) which consisted of an initial Turboflow Cyclone purification column 0.5×50 mm (Thermo Fischer Scientific) and an eluting Aeris peptide 3.6 μm XB—C18 column 2.1×50 mm (Phenomenex) kept at 60° C.
The CCK derivatives of Examples 2-9 were eluted using LC-MS method I: A chromatographic gradient system with mobile phases consisting of water with 0.1 v/v % formic acid (mobile phase A) and water/acetonitrile 10/90 v/v with 0.1 v/v % formic acid (mobile phase B). The 2 minute gradient started at 60% mobile phase B and ended at 100% mobile phase B with a flow of 0.4 mL/min. The CCK derivatives were detected and quantified after on-line infusion of the LC flow to the LTQ OrbiTrap Discovery mass spectrometer (Thermo Fischer Scientific) equipped with an electrospray interface operated in negative mode, ESI− (Sheath gas flow rate at 40, Aux gas flow rate at 30, Sweep gas flow rate at 2, Spray voltage at 2.8 kV, Capillary temp. at 275° C., S-lens RF level at −125 and Heater temp. at 325° C.).
The remaining Example compounds were eluted using LC-MS method II: A chromatographic gradient system with mobile phases consisting of water with 1 v/v % formic acid (mobile phase A) and water/acetonitrile 10/90 v/v with 1 v/v % formic acid (mobile phase B). The initial 0.25 minute gradient started at 0% mobile phase B and ended at 70% mobile phase B followed by the second 2.2 minute gradient started at 70% mobile phase B and ended at 75% mobile phase B with a flow of 0.4 mL/min. These CCK derivatives were detected and quantified as described above except that the Spray voltage was 4.0 kV.
Individual plasma concentration-time profiles were analysed by a non-compartmental model in Phoenix v. 6.3 (Pharsight Inc., Mountain View, Calif., USA).

[3] = target: T1, human cholecystokinin-2 receptor (CCK-2R) (Homo sapiens, UniProt P32239); assay: In vitro potency on CCK-2R, whole cell functional assay (IP1 accumulation, IP-One HTRF); type: cell-based; conditions: 1321-N1 cells stably expressing CCK-2R; IP1 accumulation; highest dose tested 1×10^6 pM; read-out: EC50 (CCK-2R)
T1 construct: host or cells: 1321-N1 cells (plasma membranes prepared by Evotec AG Hamburg)
T1 sequence (P32239 1-447): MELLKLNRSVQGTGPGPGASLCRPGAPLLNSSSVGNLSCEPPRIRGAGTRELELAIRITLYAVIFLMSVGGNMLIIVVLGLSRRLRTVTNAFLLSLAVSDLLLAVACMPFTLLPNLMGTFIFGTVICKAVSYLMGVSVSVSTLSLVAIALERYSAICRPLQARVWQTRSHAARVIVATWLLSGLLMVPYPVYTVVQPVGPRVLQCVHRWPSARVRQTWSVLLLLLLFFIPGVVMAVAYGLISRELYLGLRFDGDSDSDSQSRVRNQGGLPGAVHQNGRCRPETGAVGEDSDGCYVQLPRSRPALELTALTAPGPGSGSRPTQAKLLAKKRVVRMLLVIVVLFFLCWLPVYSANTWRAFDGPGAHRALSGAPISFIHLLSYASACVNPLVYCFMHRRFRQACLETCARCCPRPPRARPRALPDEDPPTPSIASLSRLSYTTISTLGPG

[4] = target: T1, human cholecystokinin-2 receptor (CCK-2R); assay: In vitro receptor binding to CCK-2R, SPA displacement of [125I]-CCK-8s from plasma membranes
[5] = target: T2, human cholecystokinin-1 receptor (human), P32238; assay: SPA competition vs [125I]-CCK-8s, membranes
T2 chain: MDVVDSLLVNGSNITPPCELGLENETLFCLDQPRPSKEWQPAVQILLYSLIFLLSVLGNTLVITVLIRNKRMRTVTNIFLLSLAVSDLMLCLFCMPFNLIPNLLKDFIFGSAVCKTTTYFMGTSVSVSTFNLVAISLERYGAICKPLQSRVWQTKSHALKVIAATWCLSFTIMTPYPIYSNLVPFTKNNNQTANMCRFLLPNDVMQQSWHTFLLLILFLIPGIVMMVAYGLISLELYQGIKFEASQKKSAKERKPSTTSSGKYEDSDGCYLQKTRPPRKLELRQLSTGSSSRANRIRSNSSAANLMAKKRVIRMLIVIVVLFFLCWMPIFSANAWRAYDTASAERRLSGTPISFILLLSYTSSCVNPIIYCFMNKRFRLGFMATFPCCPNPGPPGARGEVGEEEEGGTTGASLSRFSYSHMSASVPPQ

[6] = target: T3, human cholecystokinin-2 receptor (human), P32239; assay: cell-based or functional assay
T3 chain: T1 sequence (P32239 1-447)

[7] = target: T2, human cholecystokinin-1 receptor …; assay: cell-based or functional assay
[8] = target: T3, human cholecystokinin-2 receptor …; assay: SPA competition vs [125I]-CCK-8s, membranes

With `CSCC[C@H](NC(=O)[C@H](Cc1ccc(OS(=O)(=O)O)cc1)NC(=O)[C@@H](N)CC(=O)O)C(=O)NCC(=O)N[C@@H](Cc1c[nH]c2ccccc12)C(=O)N[C@@H](CCSC)C(=O)N[C@@H](CC(=O)O)C(=O)N[C@@H](Cc1ccccc1)C(N)=O` [CCK-8s, H-Asp-Tyr(SO3H)-Met-Gly-Trp-Met-Asp-Phe-NH2] the “purity at the start of the experiment (incubation time 0)” value ([1]; 1 mM in 8 mM sodium phosphate pH 7.4, t=0) was 97.94%, the “Absolute purity loss (pp)” value ([1]; 5° C., 1 week) was −0.04 pp and the “Absolute purity loss (pp)” value ([1]; 5° C., 2 weeks) was 0.09 pp. For the same molecule, the “Absolute purity loss (pp)” value ([1]; 37° C., 1 week) was 1.42 pp and the “Absolute purity loss (pp)” value ([1]; 37° C., 2 weeks) was 3.33 pp.

With `CCCC[C@H](NC(=O)[C@H](Cc1c[nH]c2ccccc12)NC(=O)CNC(=O)[C@H](CC(C)C)NC(=O)[C@H](Cc1ccc(OS(=O)(=O)O)cc1)NC(=O)[C@H](CC(=O)O)NC(=O)COCCOCCNC(=O)COCCOCCNC(=O)CC[C@H](NC(=O)CCCCCCCCCCCCCCCCC(=O)O)C(=O)O)C(=O)N(C)[C@H](CC(=O)O)C(=O)N(C)[C@@H](Cc1cccc2ccccc12)C(N)=O` [Example 4, 2-[2-[2-[[2-[2-[2-[[(4S)-4-Carboxy-4-(17-carboxyheptadecanoylamino)butanoyl]amino]ethoxy]ethoxy]acetyl]amino]ethoxy]ethoxy]acetyl-Asp-sTyr-Leu-Gly-Trp-Nle-DMeAsp-Me1Nal-amide] ({C18 diacid-γGlu-AEEA-AEEA}-D[sY]LGW[Nle][dNMeD][NMe1Nal]-NH2) the “Plasma terminal half-life (T½)” value [2] was 147 h and the EC50 [3] was 340 nM.

With `CCCC[C@H](NC(=O)[C@H](Cc1c[nH]c2ccccc12)NC(=O)CNC(=O)[C@H](CC(C)C)NC(=O)[C@H](Cc1ccc(OS(=O)(=O)O)cc1)NC(=O)[C@H](CC(=O)O)NC(=O)CCCCCCCCCCCCCCCCC(=O)O)C(=O)N(C)[C@H](CC(=O)O)C(=O)N(C)[C@@H](Cc1ccccc1)C(N)=O` [Example 38, 17-Carboxyheptadecanoyl-Asp-sTyr-Leu-Gly-Trp-Nle-DMeAsp-MePhe-amide] the half-life [2] was 3 h and the EC50 [3] was greater than 1000 nM.

With `CCCC[C@H](NC(=O)[C@H](Cc1c[nH]c2ccccc12)NC(=O)CNC(=O)[C@H](CC(C)C)NC(=O)[C@H](Cc1ccc(CS(=O)(=O)O)cc1)NC(=O)[C@H](CC(=O)O)NC(=O)COCCOCCNC(=O)COCCOCCNC(=O)CC[C@H](NC(=O)CCCCCCCCCCCCCCCCC(=O)O)C(=O)O)C(=O)N(C)[C@H](CC(=O)O)C(=O)N(C)[C@@H](Cc1ccccc1)C(N)=O` [Example 5, 2-[2-[2-[[2-[2-[2-[[(4S)-4-Carboxy-4-(17-carboxyheptadecanoylamino)butanoyl]amino]ethoxy]ethoxy]acetyl]amino]ethoxy]ethoxy]acetyl-Asp-Phe(4-sulfomethyl)-Leu-Gly-Trp-Nle-DMeAsp-MePhe-amide] ({C18 diacid-γGlu-AEEA-AEEA}-D[Phe(4-CH2SO3H)]LGW[Nle][dNMeD][NMeF]-NH2) the IC50 [4] was 380 nM and the half-life [2] was 106 h.

With D[sY]LGWQ[DMeAsp][NMeF]-NH2 [Asp-sTyr-Leu-Gly-Trp-Gln-DMeAsp-MePhe-amide] the IC50 [5] was 0.075 nM, the EC50 (CCK-2R) [6] was greater than 1000 nM and the EC50 (CCK-1R) [7] was 0.15 nM.

In the case of D[sY]LGWI[DMeAsp][NMeF]-NH2 [Asp-sTyr-Leu-Gly-Trp-Ile-DMeAsp-MePhe-amide], the IC50 [8] is reported as 6100 nM, the IC50 [5] is reported as 0.078 nM and the EC50 (CCK-2R) [6] is reported as greater than 1000 nM. The EC50 (CCK-1R) [7] was 0.24 nM.

With {C18 diacid-γGlu-AEEA-AEEA}-D[sY]LGWV[DMeAsp][NMeF]-NH2 the IC50 [8] was 6400 nM, the IC50 [5] was 0.31 nM and the EC50 (CCK-2R) [6] was 730 nM. For the same molecule, the EC50 (CCK-1R) [7] was 0.14 nM.

With {C18 diacid-γGlu-AEEA-AEEA}-D[sY]LGWI[DMeAsp][NMeF]-NH2 the IC50 [8] was 2300 nM, the IC50 [5] was 0.1 nM and the EC50 (CCK-2R) [6] was 260 nM. It also gave an EC50 (CCK-1R) [7] of 0.18 nM.

For {C18 diacid-γGlu-AEEA-AEEA}-D[sY]LGWL[DMeAsp][NMeF]-NH2, the IC50 [8] was 420 nM, the EC50 (CCK-2R) [6] was 79 nM and the EC50 (CCK-1R) [7] was 0.27 nM.

For {C18 diacid-γGlu-AEEA-AEEA}-D[sY]LGWP[DMeAsp][NMeF]-NH2, the IC50 [8] was 1000 nM, the IC50 [5] was 0.19 nM and the EC50 (CCK-2R) [6] was 150 nM. The EC50 (CCK-1R) [7] was 0.17 nM.

D[sY]LGWA[DMeAsp][NMeF]-NH2 [Asp-sTyr-Leu-Gly-Trp-Ala-DMeAsp-MePhe-amide] gave an IC50 [5] of 0.53 nM, an EC50 (CCK-2R) [6] greater than 1000 nM and an EC50 (CCK-1R) [7] of 0.22 nM.

Work on {C18 diacid-γGlu-AEEA-AEEA}-D[sY]LGWQ[DMeAsp][NMeF]-NH2 yielded an IC50 [5] of 0.084 nM, an EC50 (CCK-2R) [6] greater than 1000 nM and an EC50 (CCK-1R) [7] of 0.17 nM.
